Laboratory results published in publication PMC6931119.

Target: microtubules (human (endogenous in HEK293T)) (UniProt P68363)
Test: co-sedimentation; microtubule co-sedimentation assay of HEK293T cells with overexpressed Climp63-HA and GFP or GFP-Calu1; 37°C; P pellet = microtubule fraction, S supernatant = free tubulin fraction

Sequence of UniProt P68363 (P68363 whole entry, chain 1 of 2): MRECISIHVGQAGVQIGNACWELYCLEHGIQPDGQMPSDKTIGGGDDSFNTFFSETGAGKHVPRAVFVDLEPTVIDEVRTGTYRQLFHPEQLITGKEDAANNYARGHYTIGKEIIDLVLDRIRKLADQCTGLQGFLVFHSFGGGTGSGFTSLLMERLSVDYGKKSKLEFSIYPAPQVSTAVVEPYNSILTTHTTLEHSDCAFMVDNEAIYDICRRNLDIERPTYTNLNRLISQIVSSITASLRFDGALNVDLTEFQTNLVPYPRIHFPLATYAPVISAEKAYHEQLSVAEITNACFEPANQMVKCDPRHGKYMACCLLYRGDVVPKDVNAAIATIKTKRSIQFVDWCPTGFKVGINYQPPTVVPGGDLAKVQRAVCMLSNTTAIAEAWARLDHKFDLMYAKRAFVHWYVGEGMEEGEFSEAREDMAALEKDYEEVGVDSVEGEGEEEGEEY
Sequence of UniProt P68363 (P07437 whole entry, chain 2 of 2, further chain): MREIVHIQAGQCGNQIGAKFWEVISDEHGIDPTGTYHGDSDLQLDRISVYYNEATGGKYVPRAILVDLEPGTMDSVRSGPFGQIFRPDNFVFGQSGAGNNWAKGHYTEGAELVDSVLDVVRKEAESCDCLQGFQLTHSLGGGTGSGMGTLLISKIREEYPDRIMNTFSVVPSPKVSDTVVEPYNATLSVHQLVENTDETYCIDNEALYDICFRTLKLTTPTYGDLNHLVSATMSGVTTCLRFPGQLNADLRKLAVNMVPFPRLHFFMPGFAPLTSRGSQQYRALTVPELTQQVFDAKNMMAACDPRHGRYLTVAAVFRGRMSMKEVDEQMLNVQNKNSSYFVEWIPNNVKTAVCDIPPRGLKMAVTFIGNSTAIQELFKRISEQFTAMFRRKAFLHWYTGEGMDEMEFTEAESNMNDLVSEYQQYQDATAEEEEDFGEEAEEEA
Sequence of Climp63-HA (Q07065 whole entry): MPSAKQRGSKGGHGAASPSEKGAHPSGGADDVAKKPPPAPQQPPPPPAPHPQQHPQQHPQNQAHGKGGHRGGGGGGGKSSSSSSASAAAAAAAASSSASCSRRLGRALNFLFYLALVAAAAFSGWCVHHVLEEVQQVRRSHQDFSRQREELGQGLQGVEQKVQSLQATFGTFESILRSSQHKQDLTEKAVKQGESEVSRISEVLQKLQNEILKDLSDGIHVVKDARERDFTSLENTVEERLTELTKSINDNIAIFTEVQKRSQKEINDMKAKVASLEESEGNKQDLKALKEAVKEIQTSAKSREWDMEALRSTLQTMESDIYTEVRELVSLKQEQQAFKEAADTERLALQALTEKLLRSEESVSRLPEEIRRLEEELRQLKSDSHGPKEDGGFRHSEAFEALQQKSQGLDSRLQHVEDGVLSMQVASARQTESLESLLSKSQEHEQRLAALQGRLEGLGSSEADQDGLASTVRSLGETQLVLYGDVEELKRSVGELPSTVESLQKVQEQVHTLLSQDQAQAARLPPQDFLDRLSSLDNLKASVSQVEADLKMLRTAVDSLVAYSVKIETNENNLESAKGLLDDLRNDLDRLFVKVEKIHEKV

percent of Climp63 in the pellet (microtubule fraction) at 37°C, GFP overexpressed: 60%
percent of Climp63 in the pellet (microtubule fraction) at 37°C, GFP-Calu1 overexpressed: 36%
Substance: Climp63-HA (from UniProt Q07065 1-602) (natural protein)
